Experiment: In vitro functional identification of C-glycosyltransferases by HPLC, phloretin as glycosyl receptor
Format: biochemical
Settings: 0.1 mM phloretin, 0.3 mM UDP glucose, crude enzyme, 37° C., 2 h, HPLC (FIG. 1A)
Procedure: The recombinant plasmid was transformed into competent cells of Escherichia coli BL21 (DE3), and cultured overnight at 37° C. in solid LB medium (kanamycin 50 μg/mL). Single colony was transferred to a 2 mL LB liquid medium (containing 50 μg/ml kanamycin) and incubated overnight. The bacterial fluid was transferred to a new 100 ml LB liquid medium with antibiotics and incubated at 37° C. and 250 r/min until OD600 reached 0.5-0.6. The culture was cooled down to 16° C. in a water bath. Then inducer IPTG was added at a final concentration of 0.1 mM. The mixture was cultured at 16° C. for low temperature induction and 180 r/min for 20 h. The BL21(DE3) recombinant strain carrying the pET28a empty plasmid was used as a blank control, and the culture operation was the same as above. The bacteria were harvested by centrifugation (6000 r/min, 5 min), re-suspended in 1 mL of lysis buffer Buffer A (20 mM Tris-HCl, pH 8.0; 100 mM NaCl), and DNase was added to a final concentration of 5 μg/mL, Mg^2+ to a final concentration of 2 mM; protease inhibitor PMSF to a final concentration of 1 mM; the bacteria were incubated on ice for 30 min and then sonicated; refrigerated centrifugation (10,000 rpm, 30 min, 4° C.), filtered through a 0.2 µm filter membrane to obtain the supernatant crude enzyme solution, and added 20% glycerol for cryopreservation (−20° C.).
The in vitro enzyme catalytic assay system is 100 μL. The reaction system includes: 0.1 mM glycosyl receptor (phloretin or 2-hydroxynaringenin), 0.3 mM UDP glucose, 25 μL supernatant crude enzyme solution, and Buffer A is used to make up the volume to 100 μL, and react at 37° C. for 2 h. After the reaction was completed, an equal volume of methanol was added to terminate the reaction, and HPLC was used for product analysis. HPLC detection conditions: chromatographic column: reverse phase C18 column [SilGreen ODS column (ø 4.6×250 mm)], detection wavelength 280 nm; mobile phase: acetonitrile (0.1% formic acid)-water (0.1% formic acid) mixture gradient elution, with increased ratio from 5:95 to 100:0 within 0 to 20 min, and the flow rate was 1 mL/min.

| Molecule | conversion of substrate phloretin to C-glycosylated product (Nothofagin) | 5′ C-glycosylation of 3′-glycosylated phloretin giving phloretin-3′,5′-C-diglucoside |
| --- | --- | --- |
| PpCGT1: C-glycosyltransferase from high knot bamboo, SEQ ID NO: 3 (protein, listed as Phyllostachys prominens) MPTSGSRTGGRPHVILLPSAGMGHLVPFSRLAVALSSGHGCDVSVVAVLPTVSAAESRHLQGLLDASPAVRRLDLHLAPFDESEFPGADPFFLRFEAMRRSAPLLGPLLADTGESALVTDIALASVVIPVAKEIHLPCYVLFTASAAMLSFCAYFPTYLDTNAGRVVGDVDIPGVYRIPKASIPQALHDRNHLFTRQFVANGQDLAKADGVLVNTFDALELEAVTALRQGSVAAGFPPVFSVGPLVTVNLPAGEAAKESGNDYMYWLDAQPARSVVYVSFGSRKAISRNQVRELAVGLEASGQRFLWVVKSTVVDRDDSAELSELLDEGFLERVQGRGLVTKAWVEQEEVLKHESIGLFISHCGWNSVTEAAASGVPVLAWPRFGDQRVNAGVVARGGLGVWVERWSWEGEEGVVSGEEIAEKVKAVMADETVRKKAASVGEAAVKEFADGGTSYRSLTEFVRRCRDLAVLD | can convert the substrate phloretin to a product having a shorter retention time | – |
| PhCGT2: C-glycosyltransferase from moso bamboo, SEQ ID NO: 4 (protein, listed as Phyllostachys edulis) MASRAMPSSSDRTGGAPRVVLLPSAGMGHLVPFGRLAVALSSGHACDVSVVTVLPTVSSAESKHLQGLFDAFPAVRRLDLHLAPFDASEFSDADPFYVRYEAVRRSAPLLGPLLADADASALVADIALASVVIPVAKELLIPCYIFFTASATMFSLLAYFPTYLHSNAGHSIGDVDVPGVYRIPMSSIPQALHDPNNLFTQQFVANGRSLAEADGLLVNTFDAFEPEAVTALRHGTVAPGFPPVFALGPLSPVGFPAGEAARESGNYTTWLDAQPARSVVYVSFGSRKALLRDQLSELAAGLEASGCRFLWVVKGTVVDRDDDRELRELLGEVFLQRVNGRALVTKAWVEQEEVLKHPAVGLFISHCGWNSVTEATVSGVPVLAWPRFADQRVSAGVVARRGLGVWVERWSWEGEERVVTGDEIAEKVKSVLADETLRKNSTMVREAAAAAVATGGTSYRSLAKFVRRCST | can convert the substrate phloretin to a product having a shorter retention time | – |
| SbCGT2: C-glycosyltransferase from Sorghum, SEQ ID NO: 7 (protein, Sorghum bicolor) MAPSAMPASGDHTGATPHVVLLPSAGMGHLVPFARLAVALSEGHGCDVSFAAVLPTVSSAESRHLRALFAAAPAVRRLDFRLAPFDESQFPGADPFFLRFEALRRSAPLLGPLLDAAQASALVTDIVLASVVLPVAKARGVPCYVLFTSSAAMLSLCAYFPAHLDANAAAGGGRLGVGDVDIPGVYRIPKSSVPQALHDPKHLFTQQFVANGRGLVAADGILVNTFDAFEPDAITALRQGSVVSDFPPVFAVGPLQPVRFQVAEKPAHYMRWLSAQPARSVVYVSFGSRKAISTDQLRELAAGLEASGQRFLWVVKSTVVDRDDAADLADLLGDGFLERVQGRAFVTKGWVEQEEILQHGSVGLFISHCGWNSVTEAAAFGVPVLAWPRFGDQRVNAAVVARGGLGAWEERWTWDGEKGLVTGEEVAEKINAVVGNDVVARKAARVGDAAAAAAGKGGTSYQSLADFVGRCRDAGW | can convert the substrate phloretin to a product having a shorter retention time | – |
| OsCGT2: C-glycosyltransferase from Japonica rice, SEQ ID NO: 5 (protein, Oryza Sativa japonica) MCSAATPNSGDVRATPGSSRPHVVLLPSAGMGHLVPFTRLAAALCSGHGCDVSLVAAVPTVSSAEARHLAAHFTAFPAVRRLELDLASLDVSEFAGADPFYVRYEAIRRSASLLAPLLAGGASAAASALVADIALASVVIPVAKDLRLPCYVFFTASATMFSFLAYLPTYLDANAGGGHAIGDVDVPGVCRVPTSSVPQALHDPDDIFTRQFIANARSLANADGLVVNAFDALEPEAVAALRQGTVAAGLPPVFAVGPLSPAPIPAKDSGSYLPWLDAQPARSVVYVSFGSRKALPRDQLSELAAGLEASGHRFLWVVKGAVVDRDDAGELTDLLGEAFLQRIHGRGLVTMAWVRQEEVLNHPSVGLFISHCGWNSVTEAAASGVPVVAWPRFADQRVNAGVVARAGIGVWVDTWSWEGEDDGVVSAEDIAGKVRSAMADEGVRKAAASVREAAARAVAAGGSSYRSLAELVRRCRDGLVITNGM | can convert the substrate phloretin to a product having a shorter retention time | – |
| SbCGT1: C-glycosyltransferase from Sorghum, SEQ ID NO: 6 (protein, Sorghum bicolor) MAPPATKSLGELDGGARPHVMFIPSAGMGHLLPFFRVIAALAAHDVVDISVVTVLPTVSAAEADHFASLFAALPRVSRVDFHLLPFDASSEFPGHDPFLLRWEALRRSAHLFRPLIAGAAGPRVSAVVTDVTLTSHVIPIAKELGVQCHVLFVSCATMLSLAAYTPVHLDKKNKGEHGPGVGVGVGVGDVDIPGVRRIPQSYLPQPLLDLNKLFTKQFIDNGREIINADGFLVNTFDALEPVALAALRDGKVVAGFPPVYAIGPLRSKEEEATTGSPPVAWLDEQPARSVVYVAFGNRNAVSLEQIREIAAGLEASGCRFLWVLKTTTVDRDDTAELTDDVLGEGFLERVQGRGLVTKAWVDQEAVLKHASVGLFLSHSGWNSVTEAAAAGVPLLAWPRGGDHRVNATVVVSGGVGVWMEQWSWDGEDWLVTGEEIGKKVKEVMSDAAVRARATRTGEEAAKAVAEGGTSYRSMQKFISSLKAHCSP | can convert the substrate phloretin to a product having a shorter retention time | can catalyze the glycosylation of the 3′-glycosylated phloretin at the 5′ position |
| OsCGT: C-glycosyltransferase from Japonica rice, SEQ ID NO: 19 (protein, Oryza Sativa japonica) MPSSGDAAGRRPHVVLIPSAGMGHLVPFGRLAVALSSGHGCDVSLVTVLPTVSTAESKHLDALFDAFPAVRRLDFELAPFDASEFPSADPFFLRFEAMRRSAPLLGPLLTGAGASALATDIALTSVVIPVAKEQGLPCHILFTASAAMLSLCAYFPTYLDANAGDGGGVGDVDIPGVYRIPKASIPQALHDPNHLFTRQFVANGRSLTSAAGILVNTFDALEPEAVAALQQGKVASGFPPVFAVGPLLPASNQAKDPQANYMEWLDAQPARSVVYVSFGSRKAISGEQLRELAAGLETSGHRFLWVVKSTVVDRDDAAELGELLGEGFLKRVEKRGLVTKAWVDQEEVLKHESVALFVSHCGWNSVTEAAASGVPVLALPRFGDQRVNSGVVARAGLGVWADTWSWEGEAGVIGAEEISEKVKAAMADEALRRKAASLAKAAAKAVAGGGSSHRCLVEFARLCQGGTCRTN | can convert the substrate phloretin to a product having a shorter retention time | can catalyze the glycosylation of the 3′-glycosylated phloretin at the 5′ position |
| TaCGT1-A: C-glycosyltransferase from wheat, SEQ ID NO: 8 (protein, listed as Triticum aestivum) MPTSGDGPTSQPHVVLLPSAGMGHLVPFSRLAVALSSAHGCDVSLVTVLPTVSSAESSHLEALFGAFPAVRRLEFHLADFDASEFPNADPFFLRFEAMRRSAPLLLGPLLARASATALVTDIALSSVVIPVAKQLRLPCYVLFTASAAMLSLCVHFPAYLDANGNGLVGDVDIPGVYQIPKASVPQALHDPKHLFTRQFVANGRELAKSDGVLVNSFDAFEPEAIAALREGAVSAAGFFPPVFSVGPLAPVSFPAGNNNRADYIQWLEAQPARSVVYVSFGSRKAVARDQLRELAAGLEASGHRFLWVVKSTVVDRDDDADLGELLGEGFLERVQGRGMVTKGWVEQEDVLKQESVGLFISHCGWNSVTEAAAGGLPVLAWPRFGDQRVNAGVVARSGLGVWVDSWSWEGEEGVVSGESIAEKVKAVMGDEIARNKAVSVRDAAAKAVADGGTSYRNLARFAQRCRDGRVRE | can convert the substrate phloretin to a product having a shorter retention time | can catalyze the glycosylation of the 3′-glycosylated phloretin at the 5′ position |
| ZmCGT: C-glycosyltransferase from maize, SEQ ID NO: 20 (protein, Zea mays) MAANGGDHTSARPHVVLLPSAGMGHLVPFARLAVALSEGHGCNVSVAAVQPTVSSAESRLLDALFVAAAPAVRRLDFRLAPFDESEFPGADPFFLRFEATRRSAPLLGPLLDAAEASALVTDIVLASVALPVARERGVPCYVLFTSSAAMLSLCAYFPAYLDAHAAAGSVGVGVGNVDIPGVFRIPKSSVPQALHDPDHLFTQQFVANGRCLVACDGILVNTFDAFEPDAVTALRQGSITVSGGFPPVFTVGPMLPVRFQAEETADYMRWLSAQPPRSVVYVSFGSRKAIPRDQLRELAAGLEASGKRFLWVVKSTIVDRDDTADLGGLLGDGFLERVQGRAFVTMGWVEQEEILQHGSVGLFISHCGWNSLTEAAAFGVPVLAWPRFGDQRVNAALVARSGLGAWEEGWTWDGEEGLTTRKEVAKKIKGMMGYDAVAEKAAKVGDAAAAAIAKCGTSYQSLEEFVQRCRDAERK | can convert the substrate phloretin to a product having a shorter retention time | can catalyze the glycosylation of the 3′-glycosylated phloretin at the 5′ position |

From US20230066984A1, “New Carbon Glycoside Glycosyltransferase and Use Thereof” (CAS Center for Excellence in Molecular Plant Sciences, priority 2020, published 2023)
